# Assay results taken from the supplement of paper PMC9112550, “Optimization of the antimicrobial peptide Bac7 by deep mutational scanning” (BMC Biology, 2022).
# System: Escherichia coli TOP10
# Assay: shrunken log2 fold change of peptide-encoding DNA abundance (4.5 h post-induction vs induction); higher = less antimicrobial activity (less host growth inhibition)
# Conditions: time post-induction: 4.5 h; library: site-saturation at positions 5, 18, 19, 20
# 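Further: peptides expressed intracellularly from a pBAD plasmid library in pooled LB shake-flask culture, induced with 0.3% L-arabinose, DNA abundance read by NGS, three biological replicates, DESeq2 with apeglm shrinkage.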
row,Sequence,shrunken log2 fold change
1,RRIRWRPPRLPRPRPRPTKMPRP,0.344
2,RRIRKRPPRLPRPRPRPPEWPRP,1.19
3,RRIRYRPPRLPRPRPRPCQGPRP,-0.0126
4,RRIRPRPPRLPRPRPRPHNKPRP,-0.508
5,RRIRSRPPRLPRPRPRPDCPPRP,0.0922
6,RRIRMRPPRLPRPRPRPKFIPRP,-0.182
7,RRIRFRPPRLPRPRPRPCYLPRP,-0.891
8,RRIRFRPPRLPRPRPRPQCTPRP,-0.137
9,RRIRHRPPRLPRPRPRPVISPRP,-0.199
10,RRIRKRPPRLPRPRPRPQPPPRP,0.672
11,RRIRTRPPRLPRPRPRPNLQPRP,-0.0672
12,RRIRCRPPRLPRPRPRPIAHPRP,-0.0801
13,RRIRPRPPRLPRPRPRPERCPRP,0.271
14,RRIRWRPPRLPRPRPRPIFGPRP,0.0623
15,RRIRDRPPRLPRPRPRPYCYPRP,-0.125
16,RRIRRRPPRLPRPRPRPMRCPRP,0.384
17,RRIRARPPRLPRPRPRPRWHPRP,0.323
18,RRIRPRPPRLPRPRPRPEMHPRP,0.395
19,RRIRGRPPRLPRPRPRPHREPRP,0.121
20,RRIRSRPPRLPRPRPRPTRAPRP,0.738
21,RRIRFRPPRLPRPRPRPFFVPRP,-0.161
22,RRIRPRPPRLPRPRPRPEDGPRP,0.0827
23,RRIRGRPPRLPRPRPRPDDIPRP,0.027
24,RRIRRRPPRLPRPRPRPIHWPRP,-0.0227
25,RRIRIRPPRLPRPRPRPVQGPRP,0.552

row,Sequence,shrunken log2 fold change
1,RRIRQRPPRLPRPRPRPGIAPRP,0.719
2,RRIRARPPRLPRPRPRPYCSPRP,0.0743
3,RRIRPRPPRLPRPRPRPYVPPRP,-0.0652
4,RRIRMRPPRLPRPRPRPQKGPRP,-0.0123
5,RRIRYRPPRLPRPRPRPKHMPRP,-0.991
6,RRIRPRPPRLPRPRPRPCIMPRP,-1.1
7,RRIRGRPPRLPRPRPRPRIKPRP,0.487
8,RRIRKRPPRLPRPRPRPETAPRP,1.21
9,RRIRCRPPRLPRPRPRPMGCPRP,-0.0697
10,RRIRFRPPRLPRPRPRPKSSPRP,-0.103
11,RRIRLRPPRLPRPRPRPDQVPRP,0.0207
12,RRIRMRPPRLPRPRPRPMVDPRP,0.0184
13,RRIRYRPPRLPRPRPRPMTPPRP,-0.0195
14,RRIRIRPPRLPRPRPRPRVHPRP,-0.0227
15,RRIRSRPPRLPRPRPRPHLQPRP,0.0575
16,RRIRQRPPRLPRPRPRPWRWPRP,-0.0392
17,RRIRARPPRLPRPRPRPLKQPRP,0.469
18,RRIRCRPPRLPRPRPRPFICPRP,-0.57
19,RRIRSRPPRLPRPRPRPYGQPRP,-0.134
20,RRIRQRPPRLPRPRPRPKVYPRP,-0.177
21,RRIRSRPPRLPRPRPRPVNWPRP,0.142
22,RRIRWRPPRLPRPRPRPRQEPRP,0.0591
23,RRIRKRPPRLPRPRPRPHWSPRP,0.139
24,RRIRVRPPRLPRPRPRPEQQPRP,0.0394
25,RRIRGRPPRLPRPRPRPDCWPRP,1.58

row,Sequence,shrunken log2 fold change
1,RRIRDRPPRLPRPRPRPNFLPRP,-0.277
2,RRIRPRPPRLPRPRPRPWEPPRP,0.0548
3,RRIRSRPPRLPRPRPRPRIHPRP,-0.323
4,RRIRWRPPRLPRPRPRPFKGPRP,-0.0135
5,RRIRRRPPRLPRPRPRPFMLPRP,0.0692
6,RRIRMRPPRLPRPRPRPLVGPRP,0.73
7,RRIRYRPPRLPRPRPRPNIAPRP,-0.64
8,RRIRDRPPRLPRPRPRPFITPRP,-0.118
9,RRIRIRPPRLPRPRPRPWPDPRP,-0.207
10,RRIRKRPPRLPRPRPRPHMHPRP,-0.186
11,RRIRFRPPRLPRPRPRPCDLPRP,-0.142
12,RRIRNRPPRLPRPRPRPMKHPRP,-0.705
13,RRIRTRPPRLPRPRPRPWTEPRP,0.00497
14,RRIRGRPPRLPRPRPRPTFSPRP,0.162
15,RRIRNRPPRLPRPRPRPAGIPRP,-0.0145
16,RRIRLRPPRLPRPRPRPWSEPRP,0.0878
17,RRIRCRPPRLPRPRPRPMCRPRP,-0.274
18,RRIRVRPPRLPRPRPRPHNDPRP,-0.318
19,RRIRSRPPRLPRPRPRPHANPRP,-0.168
20,RRIRARPPRLPRPRPRPVTPPRP,0.479
21,RRIRGRPPRLPRPRPRPWDKPRP,0.067
22,RRIRPRPPRLPRPRPRPAELPRP,0.335
23,RRIRGRPPRLPRPRPRPMDIPRP,0.0445
24,RRIRERPPRLPRPRPRPRGCPRP,0.286
25,RRIRKRPPRLPRPRPRPNQDPRP,-0.184

row,Sequence,shrunken log2 fold change
1,RRIRQRPPRLPRPRPRPYSAPRP,-0.00273
2,RRIRNRPPRLPRPRPRPEPIPRP,0.0458
3,RRIRARPPRLPRPRPRPHPFPRP,0.0322
4,RRIRARPPRLPRPRPRPGTEPRP,0.376
5,RRIRMRPPRLPRPRPRPIIPPRP,0.000609
6,RRIRHRPPRLPRPRPRPQRSPRP,0.0449
7,RRIRSRPPRLPRPRPRPHGDPRP,0.043
8,RRIRVRPPRLPRPRPRPMHPPRP,0.0843
9,RRIRFRPPRLPRPRPRPIWVPRP,-0.107
10,RRIRGRPPRLPRPRPRPHCGPRP,-0.0798
11,RRIRRRPPRLPRPRPRPMHDPRP,0.117
12,RRIRYRPPRLPRPRPRPWFRPRP,-0.567
13,RRIRGRPPRLPRPRPRPDLEPRP,0.288
14,RRIRDRPPRLPRPRPRPKKSPRP,0.102
15,RRIRTRPPRLPRPRPRPCYFPRP,-0.616
16,RRIRIRPPRLPRPRPRPPHHPRP,-0.242
17,RRIRWRPPRLPRPRPRPSFDPRP,0.0774
18,RRIRERPPRLPRPRPRPIHPPRP,-0.239
19,RRIRKRPPRLPRPRPRPTDQPRP,0.536
20,RRIRSRPPRLPRPRPRPLMFPRP,-0.321
21,RRIRVRPPRLPRPRPRPNNPPRP,-0.352
22,RRIRDRPPRLPRPRPRPKVSPRP,0.036
23,RRIRKRPPRLPRPRPRPGDWPRP,0.485
24,RRIRGRPPRLPRPRPRPCIGPRP,-0.143
25,RRIRPRPPRLPRPRPRPDAKPRP,0.201

row,Sequence,shrunken log2 fold change
1,RRIRRRPPRLPRPRPRPLSKPRP,1.95
2,RRIRGRPPRLPRPRPRPAKLPRP,0.154
3,RRIRVRPPRLPRPRPRPRICPRP,-0.229
4,RRIRSRPPRLPRPRPRPFTTPRP,-0.392
5,RRIRTRPPRLPRPRPRPGNYPRP,0.0108
6,RRIRPRPPRLPRPRPRPFSPPRP,-0.266
7,RRIRPRPPRLPRPRPRPWYCPRP,-0.111
8,RRIRYRPPRLPRPRPRPKCVPRP,0.0122
9,RRIRERPPRLPRPRPRPVTSPRP,-0.23
10,RRIRQRPPRLPRPRPRPECDPRP,0.0401
11,RRIRSRPPRLPRPRPRPQWRPRP,0.11
12,RRIRVRPPRLPRPRPRPSATPRP,0.43
13,RRIRYRPPRLPRPRPRPGQWPRP,0.136
14,RRIRNRPPRLPRPRPRPSSNPRP,-0.416
15,RRIRPRPPRLPRPRPRPFFWPRP,0.559
16,RRIRRRPPRLPRPRPRPHQNPRP,0.769
17,RRIRCRPPRLPRPRPRPFMGPRP,-0.585
18,RRIRIRPPRLPRPRPRPTLTPRP,-0.13
19,RRIRFRPPRLPRPRPRPLLWPRP,0.305
20,RRIRGRPPRLPRPRPRPKNPPRP,0.489
21,RRIRSRPPRLPRPRPRPDKNPRP,-0.105
22,RRIRARPPRLPRPRPRPRMFPRP,0.345
23,RRIRVRPPRLPRPRPRPMALPRP,-0.169
24,RRIRSRPPRLPRPRPRPSYSPRP,0.232
25,RRIRLRPPRLPRPRPRPATMPRP,-0.366

row,Sequence,shrunken log2 fold change
1,RRIRARPPRLPRPRPRPDYLPRP,-0.805
2,RRIRIRPPRLPRPRPRPINQPRP,-0.345
3,RRIRLRPPRLPRPRPRPYPLPRP,-0.413
4,RRIRLRPPRLPRPRPRPFVPPRP,-0.162
5,RRIRMRPPRLPRPRPRPHFHPRP,-0.376
6,RRIRLRPPRLPRPRPRPIISPRP,-0.513
7,RRIRFRPPRLPRPRPRPRANPRP,0.509
8,RRIRIRPPRLPRPRPRPSAMPRP,-0.349
9,RRIRIRPPRLPRPRPRPYYMPRP,-0.983
10,RRIRQRPPRLPRPRPRPPCWPRP,0.102
11,RRIRLRPPRLPRPRPRPALNPRP,-0.0159
12,RRIRQRPPRLPRPRPRPKMMPRP,-0.082
13,RRIRSRPPRLPRPRPRPMAAPRP,1.8
14,RRIRERPPRLPRPRPRPQQKPRP,-0.157
15,RRIRWRPPRLPRPRPRPRGAPRP,0.586
16,RRIRARPPRLPRPRPRPFVNPRP,0.164
17,RRIRDRPPRLPRPRPRPEQVPRP,0.015
18,RRIRFRPPRLPRPRPRPDMDPRP,-0.107
19,RRIRDRPPRLPRPRPRPLMHPRP,0.164
20,RRIRFRPPRLPRPRPRPWLDPRP,-0.0286
21,RRIRHRPPRLPRPRPRPYFPPRP,-1.43
22,RRIRSRPPRLPRPRPRPVKWPRP,-0.03
23,RRIRLRPPRLPRPRPRPMPLPRP,-0.043
24,RRIRKRPPRLPRPRPRPLWHPRP,0.0951
25,RRIRARPPRLPRPRPRPIYYPRP,-0.182
